Measurements taken from patent US20190127447A1 (Ablynx, published 2019).

Target: RSV F protein of the hRSV Memphis 37 strain (human respiratory syncytial virus …)
Experiment: cell-based or functional assay

B1: SEQ ID NO: 71 (VHH)
chain: DVQLVESGGGLVQAGGSLSISCAASGGSLSNYVLGWFRQAPGKEREFVAAINWRGDITIGPPNVEGRFTISRDNAKNTGYLQMNSLAPDDTAVYYCGAGTPLNPGAYIYDWSYDYWGRGTQVTVSSGGGGSGGGGSGGGGSEVQLVESGGGLVQAGGSLSISCAASGGSLSNYVLGWFRQAPGKEREFVAAINWRGDITIGPPNVEGRFTISRDNAKNTGYLQMNSLAPDDTAVYYCGAGTPLNPGAYIYDWSYDYWGRGTQVTVSSGGGGSGGGGSGGGGSEVQLVESGGGLVQAGGSLSISCAASGGSLSNYVLGWFRQAPGKEREFVAAINWRGDITIGPPNVEGRFTISRDNAKNTGYLQMNSLAPDDTAVYYCGAGTPLNPGAYIYDWSYDYWGRGTQVTVSS
Q: Which “sensitivity in in vitro neutralization assays relative to RSV-B 18537” value does the source give for B1 here?
A: 6 fold
